Source: patent US20240173442A1, “COMBINATION THERAPY” (Hoffmann-La Roche Inc., priority 2021, published 2024)

Experiments:
SC BxPC3 tumors [1] = experiment: Protocol 185: biodistribution of 212Pb-DOTAM after CEA-split-DOTAM-VH/VL targeting T84.66 or CH1A1A; assay type: in vivo, SCID mice; conditions: 6 hours after injection
Procedure: (§1) The in vivo distribution of ^212Pb-DOTAM was assessed 6 hours after the radioactive injection.
Solid xenografts were established in each SCID mouse on study day 0 by SC injection of 5×10^6 cells (passage 27) in RPMI/Matrigel into the right flank. Twenty-two days after tumor cell injection, mice were sorted into experimental groups with an average tumor volume of 224 mm^3. The ^212Pb-DOTAM was injected on day 28 after inoculation, at which point the average tumor volume had reached 385 mm^3.
All mice were sacrificed and necropsied 6 hours after injection of ^212Pb-DOTAM, and the following organs and tissues harvested for measurement of radioactive content: blood, skin, spleen, pancreas, kidneys, liver, muscle, tail, and tumor. Collected tumors were split in two pieces: one was measured for radioactive content, and the other put in a cryomold containing Tissue-Tek® optimum cutting temperature (OCT) embedding medium, and put on dry ice for rapid freezing. Frozen samples in OCT were maintained at −80° C. before cryosectioning, immunofluorescence staining, and analysis using a Zeiss Axio Scope.A1 modular microscope.

SC BxPC3 tumors [2] = experiment: Protocol 189: biodistribution of 212Pb-DOTAM after bi-paratopic (T84.66 and CH1A1A) CEA-split-DOTAM-VH/VL pairs; assay type: in vivo, SCID mice; conditions: 6 hours after injection
Procedure: This bi-paratopic combination precludes formation of the full Pb-DOTAM binder on soluble CEA that only expresses one of the two epitopes (e.g. T84.66), thereby mitigating potential adverse effects thereof, such as increased circulating radioactivity and associated radiation-induced toxicity, and decreased efficacy from competition with off-tumor targets.
as §1
Solid xenografts were established in each SCID mouse on study day 0 by SC injection of 5×10^6 cells (passage 31) in RPMI/Matrigel into the right flank. Fourteen days after tumor cell injection, mice were sorted into experimental groups with an average tumor volume of 343 mm^3. The ^212Pb-DOTAM was injected on day 22 after inoculation; the average tumor volume had reached 557 mm^3 on day 21.
All mice were sacrificed and necropsied 6 hours after injection of ^212Pb-DOTAM, and the following organs and tissues harvested for measurement of radioactive content: blood, skin, spleen, pancreas, kidneys, liver, muscle, tail, and tumor.

B1: CH1A1A: CEA-split-DOTAM-VH/VL pair targeting CH1A1A: P1AF0171 (VH-AST) plus P1AD8592 (VL) (antibody, V domains shown)
VH: QVQLVQSGAEVKKPGASVKVSCKASGYTFTEFGMNWVRQAPGQGLEWMGWINTKTGEATYVEEFKGRVTFTTDTSTSTAYMELRSLRSDDTAVYYCARWDFAYYVEAMDYWGQGTTVTVSS
VL: DIQMTQSPSSLSASVGDRVTITCKASAAVGTYVAWYQQKPGKAPKLLIYSASYRKRGVPSRFSGSGSGTDFTLTISSLQPEDFATYYCHQYYTYPLFTFGQGTKLEIK
modifications: split DOTAM-binding domains and constant regions lack entries
In the case of B1, the “tumor accumulation of ^212Pb” value (SC BxPC3 tumors [1]) is reported as 40 % ID/g and the “tumor accumulation of ^212Pb” value (SC BxPC3 tumors [2]) is reported as 37 % ID/g.
